The chains are these.
B1: Ribonuclease, P00648 (parent)
chain: MMKMEGIALKKRLSWISVCLLVLVSAAGMLFSTAAKTETSSHKAHTEAQVINTFDGVADYLQTYHKLPDNYITKSEAQALGWVASKGNLADVAPGKSIGGDIFSNREGKLPGKSGRTWREADINYTSGFRNSDRILYSSDWLIYKTTDHYQTFTKIR

The data set covers variants of B1. As to conditions: Bacillus amyloliquefaciens; pH 6.3; 25 °C; Urea; Fluorescence; MES 1.00 M; NaCl 613 mM; reversible: yes; structure 1BNI; whole UniProt chain shown.

Take MMKMEGIALKKRLSWISVCLLVLVSAAGMLFSTAAKTETSSHKAHTEAQVINTFDGVADYLQTYHKLPDNYITKSEAQALNWVASKGNLADVAPGKSIGGDIFSNREGKLPGKSGRTWREADINYTSGFRNSDRILYSSDWLIYKTTDHYQTFTKIR [G81N]: the “ddG of mutation (higher = less stable)” value stood at 2.7 kcal/mol, the denaturant m value is 1.94 kcal/mol/M, the “denaturant midpoint (higher = more stable)” value amounted to 3.16 M and the unfolding free energy was determined as 6.1 kcal/mol.
In the same order, the values of MMKMEGIALKKRLSWISVCLLVLVSAAGMLFSTAAKTETSSHKAHTEAQVINTFDGVADYLQTYHKLPDNYITKSEAQALKWVASKGNLADVAPGKSIGGDIFSNREGKLPGKSGRTWREADINYTSGFRNSDRILYSSDWLIYKTTDHYQTFTKIR [G81K] are 2.7 kcal/mol, 2.06 kcal/mol/M, 2.97 M and 6.1 kcal/mol.
The corresponding values for MMKMEGIALKKRLSWISVCLLVLVSAAGMLFSTAAKTETSSHKAHTEAQVINTFDGVADYLQTYHKLPDNYITKSEAQALSWVASKGNLADVAPGKSIGGDIFSNREGKLPGKSGRTWREADINYTSGFRNSDRILYSSDWLIYKTTDHYQTFTKIR [G81S] are 2.9 kcal/mol, 2.03 kcal/mol/M, 2.93 M and 5.9 kcal/mol.
The corresponding values for MMKMEGIALKKRLSWISVCLLVLVSAAGMLFSTAAKTETSSHKAHTEAQVINTFDGVADYLQTYHKLPDNYITKSEAQALTWVASKGNLADVAPGKSIGGDIFSNREGKLPGKSGRTWREADINYTSGFRNSDRILYSSDWLIYKTTDHYQTFTKIR [G81T] are 3.2 kcal/mol, 1.96 kcal/mol/M, 2.84 M and 5.6 kcal/mol.

The values above are taken from FireProtDB (doi:10.1016/0022-2836(92)90906-z).
